In US20130078188:

Key:
[1] = target: T1, Cy7-NH-e9-c(S-Peg12)oPLGC(Me)AG-r9-c(Cy5)-CONH2 (20, …(Me)AG)
T1 chain: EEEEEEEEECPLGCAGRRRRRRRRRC

[2] = target: T2, Cy7-NH-e9-c(S-Peg12) oPPRSFL-r9-c(Cy5)-CONH2 (10, …)
T2 chain: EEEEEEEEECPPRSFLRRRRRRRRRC

[3] = target: T3, Cy7-NH-e9-c(S-Peg12) oDPRSFL-r9-c(Cy5)-CONH2 (5, …)
T3 chain: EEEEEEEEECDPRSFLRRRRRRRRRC

B1: plasmin (protein)
chain: KVYLSECKTGNGKNYRGTMSKTKNGITCQKWSSTSPHRPRFSPATHPSEGLEENYCRNPDNDPQGPWCYTTDPEKRYDYCDILECEEECMHCSGENYDGKISKTMSGLECQAWDSQSPHAHGYIPSKFPNKNLKKNYCRNPDRELRPWCFTTDPNKRWELCDIPRCTTPPPSSGPTYQCLKGTGENYRGNVAVTVSGHTCQHWSAQTPHTHNRTPENFPCKNLDENYCRNPDGKRAPWCHTTNSQVRWEYCKIPSCDSSPVSTEQLAPTAPPELTPVVQDCYHGDGQSYRGTSSTTTTGKKCQSWSSMTPHRHQKTPENYPNAGLTMNYCRNPDADKGPWCFTTDPSVRWEYCNLKKCSGTEASVVAPPPVVLLPDVETPSEEDCMFGNGKGYRGKRATTVTGTPCQDWAAQEPHRHSIFTPETNPRAGLEKNYCRNPDGDVGGPWCYTTNPRKLYDYCDVPQCAAPSFDCGKPQVEPKKCPGRVVGGCVAHPHSWPWQVSLRTRFGMHFCGGTLISPEWVLTAAHCLEKSPRPSSYKVILGAHQEVNLEPHVQEIEVSRLFLEPTRKDIALLKLSSPAVITDKVIPACLPSPNYVVADRTECFITGWGETQGTFGAGLLKEAQLPVIENKVCNRYEFLNGRVQSTELCAGHLAGGTDSCQGDSGGPLVCFEKDKYILQGVTSWGLGCARPNKPGVYVRVSRFVTWIEGVMRNN
- peptide cleavage, SDS-PAGE with Cy5/Cy7 ratio imaging [1]: not cleaved by any of the pro-coagulation enzymes
- kcat/Km, fold lower than for thrombin [2]: 14.3 fold lower kcat/Km
- kcat/Km [3]: 10000 M⁻¹ s⁻¹
